Experimental findings from US20040110663A1 are described below.

This test concerns the target Sonic hedgehog (Shh), human, as secreted by human cancer cell lines in co-culture (human). The experiment in a line: cell-based or functional assay.

Shh blocking antibody 5E1 showed an inhibition of luciferase expression in S12 cells (gli-Luc assay, S12/RT-4 co-cultures) of 85 ng/mL and an inhibition of luciferase expression in S12 cells (gli-Luc assay, S12/RT-4 co-cultures), IC90 of 0.5 µg/mL.
